{
  "source": "patent US7674604",
  "about": "(CENTER FOR BLOOD RESEARCH, dated 2010)",
  "key": {"murine ICAM-1": {"molecular_target": "murine ICAM-1 (murine, UniProt P13597 28-485, limits assumed)", "experiment": "cell-based or functional assay"}, "[1]": {"molecular_target": "T1, ICAM-1 purified from human tonsil, coated on 96-well plates (human, UniProt P05362 28-532)", "T1 construct": "mature; also called immobilized ICAM-1", "experiment": "competition: soluble I-domain against adhesion of K562 cells with wild-type LFA-1 (activated by mAb CBRLFA-1/2) to plate-coated ICAM-1; cells bound (% of input)"}},
  "data": [
    {"binder": "recombinant soluble αL I-domain K287C/K294C (G128 to Y307) stabilized in the open conformation, made in E. coli (receptor, chain 1: disulfide between C160 and C167 (mature C287, C294), also called open I-domain; soluble open I-domain) GNVDLVFLFDGSMSLQPDEFQKILDFMKDVMKKLSNTSYQFAAVQFSTSYKTEFDFSDYVKRKDPDALLKHVKHMLLLTNTFGAINYVATEVFREELGARPDATKVLIIITDGEATDSGNIDAAKDIIRYIIGIGKHFQTKESQETLHKFASKPASEFVCILDTFECLKDLFTELQKKIY", "values": [
      {"measurement": "IC50 (read off the curve), PMA-induced homotypic aggregation of EL-4 cells (aggregation score 0 to 5)", "setting": "murine ICAM-1", "value": "~1000", "unit": "nM"},
      {"measurement": "IC50 (read off the curve)", "setting": "[1]", "value": "~200", "unit": "nM"}
    ]}
  ]
}
